Data taken from the RNAGym collection of RNA variant scans (doi:10.1073/pnas.2313332121).

B1: TPR t1 (parent)
chain: GACCAAUCUGCCCUCAGAGCUCGAGAACAUCUUCGGAUGCAGAGGAGGCAGGCUUCGGUGGCGCGAUAGCGCCAACGUCCUCAACCUCCAAUGCAUCCCACCACAUGAUGAUGCCUGAAGAGCCUUGGUUUUUUG

Variants of: B1
Experiment: polymerase ribozyme fitness, log enrichment relative to wild type (log ratio); higher = more active; in vitro selection for triplet polymerase activity
In short: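 Fitness is a logarithmic measure of how a genotype enriched relative to the wild type, with replicate averages weighted by inverse variance. The logarithm uses base 2, and enrichment came from Illumina sequencing of input and output libraries. Those libraries were PCR-built, transcribed mutants of each subunit of a heterodimeric triplet polymerase ribozyme, passed through one triplicate in vitro selection round that included frozen incubation at −7 °C, gel excision of extended constructs and streptavidin-bead capture. Genotypes were kept only if they had ≥10 input reads and ≥1 read per output.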

Variant | polymerase ribozyme fitness (log ratio)
A37G G44C G48U C73A | -2.25
G36U C56U C104A | -2.85
A37G G39C | -2.69
G36U A46G | -0.974
A37G C53G G69A G110U U132C | -6.38
A37U A46U U131G | -2.61
A37U C56G U87G | -1.26
G36C C72G | -2.37
A37C A95G | -0.966
G36U C99U C124A | -3.03
A37C G44A A50U G120U | -3.3
A37G A84C | -0.444
A37U C80G | -5.42
G36C G61U C70G C80U U81A C88U C104A C114G | -6.29
A37U A91U U130A | -2.83
A37G C114U U129C | -3.17
A37U C115U | -0.707
A37U C115A | -0.816
A37C C56G U125A | -1.58
A37G C56U | -0.0501
G36U U78C C101U C123A | -1.09

Variant | polymerase ribozyme fitness (log ratio)
A37C G39C | -4.38
A37U G47U C73U C101G C114U U126G | -7.11
A37C G42U G48C A50U C70U G120U C124U | -3.73
A37G U92C U106C G110A | -3.53
G36C C49G C70U | -2.37
A37U G44A A83C G120C U130G | -1.38
A37G C98U | -1.79
A37C C72U G120U A121C | 0.205
A37G U92A | -2.8
G36U G44A C72A C94G C123G | -4.22
G36U G120C | 0.124
G36U G120U | 0.153
G36U C64U A119G | 0.0711
A37U G44C A100G C104U C115A | -5.44
A37U A74C A83U G117U | -3.26
A37G U96A | -3.44
A37G G113C | -2.15
A37G G113A | -1.4
A37G C72U C88G C104U G113A | -4.89
A37G C76G C80G | -6.38
A37U C53G U116A | -3.56

Variant | polymerase ribozyme fitness (log ratio)
A37U A41C U55C U87G C88U | -2.92
A37C G48C U54C G63A A74U G113A | -5.41
A37G C64U C73G U109A | -6.41
G36U G61A G117U | -5.19
A37C A118U | 0.469
G36U C124U | 0.315
G36U C124G | 0.74
G36U G44A G63A | -3.52
G36C G61U C114A | -2.77
G36U C86A | -1.1
A37C U55G C76U A105U | -2.68
A37U C86A | -0.797
G36U A50C A84U | -1.94
A37U C72U A83G C86U | 0.0963
A37U C53U G58C A66U C76G U106C | -2.44
G36U U112A | 0.888
A37U C72G U78C A119U | -1.26
A37U C56G | -1.11
G36U G60A C94U | -1.8
A37C U54G G57A | -1.35
A37G U78A C82G A119U | -0.542

Variant | polymerase ribozyme fitness (log ratio)
G36U C104U | -1.41
G36U A46C A50U A84U | -5.6
A37G C40U G51U C82G | -3.82
G36C G61C | -2.42
G36U C97A | -0.428
G36C C70U | -1.72
A37U A83U U106A | 0.192
A37C C56A U78C U130C | -0.27
A37U C70G C97U G117U | -5.65
G36C U87G U116A | -5.07
A37U C72A | -0.493
G36U C101A U130C | -1.6
G36U C72G C102U | -3.82
G36U U54G G69A | -5.06
G36U C85A C104A | -3.96
A37C U54A G93C | -1.23
A37C C56G | -1
A37C G48C U54C G113A | -2.76
G36U C40U A121U G122C | -0.484
G36U C40G U78G C97A U112G | -1.61
